Assay results as given in patent JP2008194054A (dated 2008).

B1: マウスJ鎖 (J鎖のみを発現する植物) (other, mouse, UniProt P01592 22-159, looked up)
chain: GDDEATILADNKCMCTRVTSRIIPSTEDPNEDIVERNIRIVVPLNNRENISDPTSPLRRNFVYHLSDVCKKCDPVEVELEDQVVTATQSNICNEDDGVPETCYMYDRNKCYTTMVPLRYHGETKMVQAALTPDSCYPD
notes: Tested as extract of tobacco plants that express J chain only, or by co-expression

Experiments:
精製連鎖球菌抗原(SA)I/II [1] = molecular target: T1, 精製連鎖球菌抗原(SA)I/II (Streptococcus mutans, UniProt P23504 39-1532); assay: competition ELISA on purified SA I/II; competitor 125I-labelled mouse Guy's13
T1 construct: Purified antigen; also called 固定化精製連鎖球菌抗原
T1 sequence (looked up): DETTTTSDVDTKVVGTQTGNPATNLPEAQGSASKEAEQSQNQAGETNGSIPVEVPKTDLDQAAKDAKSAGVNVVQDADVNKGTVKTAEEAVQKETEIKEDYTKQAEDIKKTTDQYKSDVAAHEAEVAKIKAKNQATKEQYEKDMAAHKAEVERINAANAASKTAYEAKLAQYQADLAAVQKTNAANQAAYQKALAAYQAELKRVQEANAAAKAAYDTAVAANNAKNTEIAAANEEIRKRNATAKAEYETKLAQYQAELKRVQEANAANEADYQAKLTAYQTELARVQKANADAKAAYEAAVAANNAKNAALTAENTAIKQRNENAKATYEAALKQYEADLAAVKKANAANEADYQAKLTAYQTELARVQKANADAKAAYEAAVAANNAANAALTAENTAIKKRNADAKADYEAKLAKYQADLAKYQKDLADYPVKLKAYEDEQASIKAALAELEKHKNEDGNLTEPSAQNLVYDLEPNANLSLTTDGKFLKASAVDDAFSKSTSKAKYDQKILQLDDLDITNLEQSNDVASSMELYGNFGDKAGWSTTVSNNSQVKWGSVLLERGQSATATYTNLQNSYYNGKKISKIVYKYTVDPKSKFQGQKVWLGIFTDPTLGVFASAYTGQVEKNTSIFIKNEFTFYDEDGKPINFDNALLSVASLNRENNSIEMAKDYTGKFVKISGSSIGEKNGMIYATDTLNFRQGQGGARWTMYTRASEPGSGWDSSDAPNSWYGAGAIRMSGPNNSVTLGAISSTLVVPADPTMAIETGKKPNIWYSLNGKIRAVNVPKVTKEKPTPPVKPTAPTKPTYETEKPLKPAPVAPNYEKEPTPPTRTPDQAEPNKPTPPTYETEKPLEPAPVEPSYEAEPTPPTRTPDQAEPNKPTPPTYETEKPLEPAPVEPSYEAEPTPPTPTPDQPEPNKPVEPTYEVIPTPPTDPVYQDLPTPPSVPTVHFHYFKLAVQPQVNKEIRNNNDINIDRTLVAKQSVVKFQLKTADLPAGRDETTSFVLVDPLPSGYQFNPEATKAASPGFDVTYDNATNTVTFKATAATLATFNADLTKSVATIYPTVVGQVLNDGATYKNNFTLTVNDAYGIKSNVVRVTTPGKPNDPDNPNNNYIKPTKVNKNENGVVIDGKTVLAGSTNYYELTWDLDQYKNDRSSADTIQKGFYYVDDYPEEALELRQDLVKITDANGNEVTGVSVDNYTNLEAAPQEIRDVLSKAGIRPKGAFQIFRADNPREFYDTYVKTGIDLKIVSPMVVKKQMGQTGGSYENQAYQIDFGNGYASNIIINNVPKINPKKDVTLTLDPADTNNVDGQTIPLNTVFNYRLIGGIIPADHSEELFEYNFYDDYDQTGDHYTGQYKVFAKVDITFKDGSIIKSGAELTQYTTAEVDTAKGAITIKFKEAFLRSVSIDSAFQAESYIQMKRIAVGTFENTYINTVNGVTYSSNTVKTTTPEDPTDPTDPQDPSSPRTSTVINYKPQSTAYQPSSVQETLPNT

精製連鎖球菌抗原(SA)I/II [2] = molecular target: T1, 精製連鎖球菌抗原(SA)I/II; assay: ELISA on SA I/II, plant extracts

Row | Molecule | 標識マウスGuy's13の阻害% (精製連鎖球菌抗原(SA)I/II [1]) [%] | binding result (精製連鎖球菌抗原(SA)I/II [2])
1 | 植物G2/A (var−γ1−γ2−α2−α3ドメインを含むIgG/IgAハイブリッド重鎖のGuy's13) (from UniProt P01878 101-344) (antibody) | < 85 | 
2 | 植物G13 (本来のガンマ重鎖のGuy's13IgG、タバコで発現) (antibody) | < 85 | 
3 | 植物G1/A (Guy's13可変領域−(IgG1 CH1)−(IgA CH2)−(IgA CH3) ハイブリッド重鎖とカッパ鎖) (from UniProt P01878 101-344) (antibody) | < 85 | 
4 | B1 |  | no binding
